Assay results: patent publication US6348573B1, “Compositions and methods for identifying apoptosis signaling pathway inhibitors and activators” (The Regents of the University of Michigan, priority 1998, dated 2002)

Legend:
[1] = system: BJAB cells; assay: BJAB apoptosis induced by anti-CD95 (anti-APO1) antibody; assay type: cell-based, human; settings: BJAB stably expressing the mutant vs control plasmid, PI staining
Description: The total amount of transfected plasmid DNA was adjusted with pcDNA3 plasmid to be the same within individual experiments. After transfection, 293T cells were harvested at different times and lysed with 0.2% NP-40 isotonic lysis buffer [N. Inohara et al., Proc. Natl. Acad. Sci. U.S.A. 94:10717-10722 (1997)]. The B lymphocyte-derived BJAB cell line was stably trasnfected by electroporation with pcDNA3 or pcDNA3-Flag-RICK (K38M). After selection with […] (1 μg/ml), bulk cell lines were tested for RICK protein expression with anti-Flag antibody by flow cytometric analysis. […]
Apoptosis Assays: 5×10^5 293T cells were co-transfected with 0.2 μg of pcDNA3-β-gal plus each expression plasmid in triplicate by the calcium phosphate method as reported [N. Inohara et al., Proc. Natl. Acad. Sci. U.S.A. 94:10717-10722 (1997)]. […] At least 300 hundred blue-staining cells were counted. BJAB apoptosis induced by anti-Apol mAb was determined by flow cytometric analysis of nuclei stained with propidium iodide as described [R. Merino et al., J. Immunol. […] Statistical significance was determined by one-way ANOVA followed by Student-Neuman-Keuls post-doc comparisons.

[2] = biological target: T1, CLARP (Homo sapiens, UniProt O15519); assay: Co-immunoprecipitation of RICK with CLARP; assay type: binding
Description: (§1) The total amount of transfected plasmid DNA was adjusted with pcDNA3 plasmid to be the same within individual experiments. After transfection, 293T cells were harvested at different times and lysed with 0.2% NP-40 isotonic lysis buffer [N. Inohara et al., Proc. Natl. Acad. Sci. U.S.A. 94:10717-10722 (1997)]. The B lymphocyte-derived BJAB cell line was stably trasnfected by electroporation with pcDNA3 or pcDNA3-Flag-RICK (K38M). After selection with […] (1 μg/ml), bulk cell lines were tested for RICK protein expression with anti-Flag antibody by flow cytometric analysis. For immunoprecipitation, 1 mg of soluble protein was incubated with 10 μg/ml of polyclonal anti-Flag, anti-myc or control antibody overnight at 4° C. and tagged proteins were immunoprecipitated with Protein A-Sepharose 4B (Zymed Laboratories Inc.). Immunoprecipitated proteins or total lysates were subjected to 12% SDS-polyacrylamide electrophoresis and immunoblotted with monoclonal antibodies (mAb) to HA (Boeringer Mannheim) or Flag (Kodak).

[3] = biological target: T2, caspase-8 (Homo sapiens, UniProt Q14790); assay: Caspase enzymatic assay (Ac-DEVD-AMC) after RICK co-transfection; assay type: biochemical; settings: immunoprecipitated caspase-8, Ac-DEVD-AMC substrate
T2 construct: expressed in transfected cells; host or cells: human 293T cells
Description: Caspase Enzymatic Assay: The human FADD cDNA was cloned into the BamHI and XhoI sites of pcDNA3-myc to produce C-terminal myc-tagged FADD. 5×10^6 293T cells were transfected with 5 μg of pcDNA3, pcDNA3-caspase-8-AU1 or pcDNA3-caspase-8-mt-AU1 [N. Inohara et al., Proc. Natl. Acad. Sci. U.S.A. 94:10717-10722 (1997)] plus 5 μg of pcDNA3, pcDNA3-FADD-myc or pcDNA3- Flag-RICK. At 16 hours after transfection, cells were harvested and lysed with NP-40 buffer [N. Inohara et al., Proc. Natl. Acad. Sci. U.S.A. 94:10717-10722 (1997)]. AU1-tagged proteins were immunoprecipitated with mAb to AU1 and the Ac-DEVD-AMC cleavage activity was measured as previously described [N. Inohara et al., Proc. Natl. Acad. Sci. U.S.A. 94:10717-10722 (1997)].

[4] = system: caspase-1, caspase-2, caspase-3, caspase-4, caspase-8, CED-3, CED-4, Bcl-XL, TRAF2, c-IAP-1, c-IAP-2 or RAIDD; assay: Association of RICK with other apoptosis regulatory proteins; assay type: binding; settings: 293T lysates
Description: as §1

[5] = biological target: T3, FADD (Homo sapiens, UniProt Q13158); assay: In vitro phosphorylation of recombinant FADD by RICK immunoprecipitates; assay type: biochemical; settings: immunoprecipitates from 293T cells, 5 μM [γ-32P]ATP
T3 construct: made in house
T3 sequence (Q13158 1-208): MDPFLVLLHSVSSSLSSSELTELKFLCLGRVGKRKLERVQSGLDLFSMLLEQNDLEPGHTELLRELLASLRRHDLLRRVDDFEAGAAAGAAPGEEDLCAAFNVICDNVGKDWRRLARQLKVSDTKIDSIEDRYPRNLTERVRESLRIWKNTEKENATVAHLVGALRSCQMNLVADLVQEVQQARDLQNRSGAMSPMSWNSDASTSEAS
Text: CIPERK proteins in total lysate were detected by immunoblotting with mAb to Flag (middle panel). Recombinant FADD on the same filter used in (A) was detected by immunoblotting, with rabbit polyclonal anti-(His)6 antibody (lower panel). Note CIPERK was autophosphorylated. The estimated molecular size is shown on the left [293T cells were transfected with vector control or plasmid expressing Flag-CIPERK (WT) or Flag-CIPERK-K38M (mt), and then CIPERK proteins were immunoprecipitated by mAb to Flag and incubated with recombinant FADD and 5 μM [γ-^32P]ATP].

[6] = system: NF-KB; assay: NF-KB activation by RICK; assay type: cell-based, human; settings: 293T cells
[7] = biological target: T1, CLARP; assay: Co-immunoprecipitation of RICK with CLARP; assay type: binding; design: expressed in transfected cells; host or cells: human 293T cells; settings: CLARP-C (residues 246-480)
Description: as §1

[8] = system: 293T cells; assay: Apoptosis assay, RICK co-transfection; assay type: cell-based, human; settings: 293T cells
Description: as §1
Apoptosis Assays: 5×10^5 293T cells were co-transfected with 0.2 μg of pcDNA3-β-gal plus each expression plasmid in triplicate by the calcium phosphate method as reported [N. Inohara et al., Proc. Natl. Acad. Sci. U.S.A. 94:10717-10722 (1997)]. In some experiments, 20 μM of the caspase inhibitor zVAD-fmk (Enzyme Systems Products) or 12.5 μl of medium from […] cells producing Fas ligand (Immunex Corporation, Seattle, Wash.) was added at 8 hrs after transfection. At 18 or 24 hours after transfection, cells were fixed, stained for β-galactosidase as described [N. Inohara et al., Proc. Natl Acad. Sci. U.S.A. 94:10717-10722 (1997)] and assayed for morphological features of apoptosis. At least 300 hundred blue-staining cells were counted. BJAB apoptosis induced by anti-Apol mAb was determined by flow cytometric analysis of nuclei stained with propidium iodide as described [R. Merino et al., J. Immunol. 155:3830-3838 (1995)]. Statistical significance was determined by one-way ANOVA followed by Student-Neuman-Keuls post-doc comparisons.

[9] = biological target: T3, FADD; assay: FADD phosphorylation in transfected cells; assay type: cell-based; settings: 293T cells, co-expression with CLARP
Description: Therefore, next it was determined whether expression of CIPERK can regulate the phosphorylation of FADD in vivo. Expression plasmids producing HA-CLARP, Flag-CIPERK and AU1-FADD were transiently transfected into 293T cells, and the expression of FADD was monitored by immunoblotting with anti-AU1 antibody. Transfection of plasmids producing either FADD or FADD plus CIPERK induced the expression of two closely migrating AU1-tagged FADD proteins of ˜27 kDa (FIG. 12A). In contrast, co-expression of FADD, CIPERK and CLARP induced the expression of two additional FADD bands migrating at ˜30 kDa (FIG. 12A), previously shown to represent phosphorylated FADD [B. Z. Stanger et al., Cell 81:513-523 (1995)]. […] The increased induction of FADD phosphorylation by CLARP was specific in that was not observed when FADD was co-expressed with only CIPERK and caspase-8 (FIG. 12A). Furthermore, FADD phosphorylation was induced by ectopic expression of CD95 (FIG. 12B), a stimulus known to induce CD95 oligomerization and activation [J. P. Medema et al., EMBO J. 16:2794 -2804 (1997); B. Z. Stanger et al., Cell 81:513-523 (1995)].

[10] = biological target: T4, Flag-tagged RICK (RIP-like interacting CLARP kinase), pcDNA3-Flag-RICK (human, UniProt O43353 11-540, limits assumed); assay: anti-Flag immunoprecipitation from co-transfected 293T cells, anti-HA immunoblot
T4 construct: Entire open reading frame of RICK, expressed in 293T cells; also called CIPERK; Flag-CIPERK; not shown: N-terminal Flag tag
T4 sequence (O43353 other isoform, or with tags, fused parts or gaps limits assumed): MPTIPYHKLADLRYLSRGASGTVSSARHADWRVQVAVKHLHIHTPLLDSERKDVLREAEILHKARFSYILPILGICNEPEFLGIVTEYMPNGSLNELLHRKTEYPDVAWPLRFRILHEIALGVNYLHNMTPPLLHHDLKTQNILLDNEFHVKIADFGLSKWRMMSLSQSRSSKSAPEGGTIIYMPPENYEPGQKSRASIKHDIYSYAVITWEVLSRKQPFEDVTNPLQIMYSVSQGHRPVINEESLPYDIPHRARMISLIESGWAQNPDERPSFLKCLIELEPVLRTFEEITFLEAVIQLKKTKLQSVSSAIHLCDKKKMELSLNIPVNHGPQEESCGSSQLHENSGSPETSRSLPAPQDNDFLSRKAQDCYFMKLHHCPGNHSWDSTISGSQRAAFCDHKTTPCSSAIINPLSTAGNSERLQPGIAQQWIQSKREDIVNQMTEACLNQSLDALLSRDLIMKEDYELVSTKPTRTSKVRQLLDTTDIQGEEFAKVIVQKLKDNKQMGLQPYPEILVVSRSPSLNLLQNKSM

## RICK-K38M: RICK ATP-binding site mutant, lysine at position 38 replaced by methionine
[1]
  sensitivity to anti-APO1-induced apoptosis: significantly less sensitive

## RICK: RIP-like interacting CLARP kinase, protein of 531 amino acids (SEQ ID NO:1)
[2]; 293T lysates
  co-immunoprecipitation with CLARP: co-immunoprecipitated
[2]; CLARP-N
  interaction with the N-terminal DED-containing domain of CLARP: not
[3]
  enzymatic activity of wild-type (wt) caspase-8: enhanced
[4]
  association with multiple apoptosis regulatory proteins (caspase-1, -2, -3, -4, -8, CED-3, CED-4, Bcl-XL, TRAF2, c-IAP-1, c-IAP-2, RAIDD): did not associate
[5]
  phosphorylation of recombinant FADD: induced phosphorylation
[6]
  activation of NFkB: induction of NFkB
[7]
  interaction with the C-terminal caspase-like domain of CLARP: interacted
[8]; RICK alone
  induction of apoptosis by expression of RICK: did not
[8]; co-expression of wt or mutant RICK
  apoptosis induced by FADD, CLARP and caspase-8: enhanced
[8]; co-expression with RICK
  apoptosis promoted by caspase-8: augmented
  apoptosis promoted by caspase-10: augmented
[8]; co-expression with RICK, Cys377 to Ser mutant
  apoptosis induced by caspase-8-mt: did not augment
[9]
  phosphorylation of FADD in cells: induced the phosphorylation of FADD in the presence of CLARP

B1: C. elegans CED-3, epitope-tagged (pcDNA3-Ced-3-Flag) (enzyme, UniProt P42573 1-503, looked up)
chain: MMRQDRRSLLERNIMMFSSHLKVDEILEVLIAKQVLNSDNGDMINSCGTVREKRREIVKAVQRRGDVAFDAFYDALRSTGHEGLAEVLEPLARSVDSNAVEFECPMSPASHRRSRALSPAGYTSPTRVHRDSVSSVSSFTSYQDIYSRARSRSRSRALHSSDRHNYSSPPVNAFPSQPSSANSSFTGCSSLGYSSSRNRSFSKASGPTQYIFHEEDMNFVDAPTISRVFDEKTMYRNFSSPRGMCLIINNEHFEQMPTRNGTKADKDNLTNLFRCMGYTVICKDNLTGRGMLLTIRDFAKHESHGDSAILVILSHGEENVIIGVDDIPISTHEIYDLLNAANAPRLANKPKIVFVQACRGERRDNGFPVLDSVDGVPAFLRRGWDNRDGPLFNFLGCVRPQVQQVWRKKPSQADILIAYATTAQYVSWRNSARGSWFIQAVCEVFSTHAKDMDVVELLTEVNKKVACGFQTSQGSNILKQMPEMTSRLLKKFYFWPEARNSAV
notes: not shown: position and
[10]
  binding result: no binding

B2: TRAF2 (other, UniProt Q12933 1-501, looked up, not shown: small tags and cut ends)
chain: MAAASVTPPGSLELLQPGFSKTLLGTKLEAKYLCSACRNVLRRPFQAQCGHRYCSFCLASILSSGPQNCAACVHEGIYEEGISILESSSAFPDNAARREVESLPAVCPSDGCTWKGTLKEYESCHEGRCPLMLTECPACKGLVRLGEKERHLEHECPERSLSCRHCRAPCCGADVKAHHEVCPKFPLTCDGCGKKKIPREKFQDHVKTCGKCRVPCRFHAIGCLETVEGEKQQEHEVQWLREHLAMLLSSVLEAKPLLGDQSHAGSELLQRCESLEKKTATFENIVCVLNREVERVAMTAEACSRQHRLDQDKIEALSSKVQQLERSIGLKDLAMADLEQKVLEMEASTYDGVFIWKISDFARKRQEAVAGRIPAIFSPAFYTSRYGYKMCLRIYLNGDGTGRGTHLSLFFVVMKGPNDALLRWPFNQKVTLMLLDQNNREHVIDAFRPDVTSSSFQRPVNDMNIASGCPLFCPVSKMEAKNSYVRDDAIFIKAIVDLTGL
[10]
  binding result: no binding

B3: caspase-4 (enzyme, UniProt P49662 1-377, looked up, not shown: small tags and cut ends)
chain: MAEGNHRKKPLKVLESLGKDFLTGVLDNLVEQNVLNWKEEEKKKYYDAKTEDKVRVMADSMQEKQRMAGQMLLQTFFNIDQISPNKKAHPNMEAGPPESGESTDALKLCPHEEFLRLCKERAEEIYPIKERNNRTRLALIICNTEFDHLPPRNGADFDITGMKELLEGLDYSVDVEENLTARDMESALRAFATRPEHKSSDSTFLVLMSHGILEGICGTVHDEKKPDVLLYDTIFQIFNNRNCLSLKDKPKVIIVQACRGANRGELWVRDSPASLEVASSQSSENLEEDAVYKTHVEKDFIAFCSSTPHNVSWRDSTMGSIFITQLITCFQKYSWCCHLEEVFRKVQQSFETPRAKAQMPTIERLSMTRYFYLFPGN
[10]
  binding result: no binding

B4: caspase-8, epitope-tagged (pcDNA3-caspase-8-AU1) (enzyme, human, UniProt Q14790-4 1-496, looked up, not shown: small tags and cut ends)
chain: MDFSRNLYDIGEQLDSEDLASLKFLSLDYIPQRKQEPIKDALMLFQRLQEKRMLEESNLSFLKELLFRINRLDLLITYLNTRKEEMERELQTPGRAQISAYRFHFCRMSWAEANSQCQTQSVPFWRRVDHLLIRVMLYQISEEVSRSELRSFKFLLQEEISKCKLDDDMNLLDIFIEMEKRVILGEGKLDILKRVCAQINKSLLKIINDYEEFSKGEELCGVMTISDSPREQDSESQTLDKVYQMKSKPRGYCLIINNHNFAKAREKVPKLHSIRDRNGTHLDAGALTTTFEELHFEIKPHDDCTVEQIYEILKIYQLMDHSNMDCFICCILSHGDKGIIYGTDGQEAPIYELTSQFTGLKCPSLAGKPKVFFIQACQGDNYQKGIPVETDSEEQPYLEMDLSSPQTRYIPDEADFLLGMATVNNCVSYRNPAEGTWYIQSLCQSLRERCPRGDDILTILTEVNYEVSNKDDKKNMGKQMPQPTFTLRKKLVFPSD
notes: also called AU1-tagged caspase-8; FLICE
[10]
  binding result: no binding
